From the supplement of paper PMC10724198
± gives the standard deviation of the averaged measurements.

System: Saccharomyces cerevisiae
Assay: protein stability index of tFT-peptide fusion (C-terminal peptide) (PSI (0-1 scale)); higher = more stable (slower turnover)
Details: genetic background: wild type; temperature: 30 C
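Further: PSI is a weighted mean of sequencing reads over stability bins, variants kept only with over 10 reads, mCherry proximal and sfGFP distal, peptide attached via GGGS linker.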

Row | Sequence | protein stability index
1 | PDRQVTAFPCFW | 0.6787 ± 0.0051
2 | PDSASSLTPPPP | 0.66 ± 0.085
3 | PDTLCAYLSFGS | 0.776 ± 0.064
4 | PDTRLGIIITNM | 0.701 ± 0.083
5 | PDVFIWIRPLLP | 0.6282 ± 0.0062
6 | PDVNLVRRVMSL | 0.596 ± 0.053
7 | PDVPVTCYAASH | 0.661 ± 0.067
8 | PEERSGTSAGRL | 0.695 ± 0.038
9 | PEGICYCHSPAP | 0.694 ± 0.013
10 | PEGPPRPPLHPS | 0.696 ± 0.019
11 | PEPEPAGASQKR | 0.577 ± 0.0076
12 | PERWFPSTPSLP | 0.702 ± 0.031
13 | PEYGSGCNCLGS | 0.664 ± 0.0073
14 | PFAPSPRPPQPP | 0.672 ± 0.02
15 | PFATARLFPLPP | 0.804 ± 0.019
16 | PFECRRPFPPPA | 0.764 ± 0.067
17 | PFEVPSSVISVP | 0.673 ± 0.13
18 | PFIAHSACAALN | 0.604 ± 0.011
19 | PFIPQPFPPLCS | 0.709 ± 0.075
20 | PFPFLPSPIFPQ | 0.749 ± 0.057
21 | PFPPPPSPPLYP | 0.7292 ± 0.0012
22 | PFPPSAAPPLPF | 0.593 ± 0.068
23 | PFPPSAHPPPPH | 0.795 ± 0.085

Row | Sequence | protein stability index
24 | PFPRSSPPPPPD | 0.652 ± 0.017
25 | PFPSPPSPRDAS | 0.688 ± 0.042
26 | PFRSPSLPYFRL | 0.712 ± 0.018
27 | PFSLLPDASPPL | 0.703 ± 0.04
28 | PFSLPPPHLWSI | 0.746 ± 0.065
29 | PFVCPHLPAPPP | 0.791 ± 0.094
30 | PFVGFSLLWLGF | 0.567 ± 0.017
31 | PGAFLRLSPPRA | 0.7019 ± 0.0013
32 | PGAGKRLIERVK | 0.593 ± 0.062
33 | PGCGVGSPARAE | 0.712 ± 0.032
34 | PGCYRVPIHSFS | 0.7131 ± 0.0015
35 | PGKRPTERLAPS | 0.749 ± 0.026
36 | PGLIPSPRYLLP | 0.656 ± 0.024
37 | PGLSTGAVKLLY | 0.692 ± 0.023
38 | PGPGNGHTKRTR | 0.654 ± 0.034
39 | PGRLVVGAGRED | 0.707 ± 0.036
40 | PGRRATKVPSPR | 0.719 ± 0.027
41 | PGSAVSFLLTFR | 0.646 ± 0.012
42 | PGSFDLSDLAFA | 0.707 ± 0.073
43 | PGSRRAQPVTSG | 0.741 ± 0.022
44 | PGTGPPSWGRTS | 0.605 ± 0.047
45 | PGTNENPLSPGK | 0.7302 ± 0.0041
46 | PHAGPLHTPLRL | 0.699 ± 0.019

Row | Sequence | protein stability index
47 | PHILPTSDSPFP | 0.78463 ± 0.00073
48 | PHLHLPPPPISA | 0.5857 ± 0.00069
49 | PHLPPPPDPPRP | 0.676 ± 0.009
50 | PHLWSLPHATTA | 0.684 ± 0.051
51 | PHPHLPAPTPRT | 0.702 ± 0.0079
52 | PHPPLPPPPPPP | 0.702 ± 0.018
53 | PHPPPSSRLLSR | 0.751 ± 0.058
54 | PHPQPRPTAPSP | 0.7177 ± 0.002
55 | PHPVTVFLSHLS | 0.499 ± 0.041
56 | PHRPCPPPAPPP | 0.658 ± 0.0096
57 | PHRPIGRVKHAS | 0.71 ± 0.038
58 | PHSPPRPLPPPL | 0.703 ± 0.047
59 | PHTPARSLPPSR | 0.6473 ± 0.0047
60 | PIAPDPAPVGLD | 0.721 ± 0.014
61 | PILPPVPPRASS | 0.7029 ± 0.0053
62 | PIPSVFSPFLFA | 0.641 ± 0.015
63 | PIQYMLRSSMPR | 0.688 ± 0.065
64 | PISPPSFRSPTP | 0.691 ± 0.029
65 | PISPSLCSSILS | 0.5893 ± 0.0056
66 | PISRRVIFCLQT | 0.62 ± 0.033
67 | PITFTSRYLLLE | 0.697 ± 0.042
68 | PIVRTQLGNSVQ | 0.696 ± 0.067
69 | PIYRNKGNRGGI | 0.739 ± 0.034

Row | Sequence | protein stability index
70 | PKKKKKKTKAEK | 0.712 ± 0.035
71 | PKSGPDQPQPPG | 0.591 ± 0.086
72 | PLAFFSTRPTPF | 0.697 ± 0.03
73 | PLALLPPPPHPP | 0.597 ± 0.07
74 | PLAPPPLSPSPI | 0.7873 ± 0.0059
75 | PLAPPPSILPVP | 0.703 ± 0.055
76 | PLAPPRHRRRPG | 0.7132 ± 0.0047
77 | PLARLRFRSVVG | 0.6678 ± 0.0038
78 | PLASRPHPLPPP | 0.671 ± 0.02
79 | PLDAPDTRVWEI | 0.738 ± 0.061
80 | PLFLCVISPFRL | 0.5805 ± 0.0018
81 | PLFLYCRSAPRL | 0.817 ± 0.025
82 | PLFPGLARLSSS | 0.703 ± 0.031
83 | PLFPSPSPPRHP | 0.7435 ± 0.0018
84 | PLFTPPPVLHHP | 0.752 ± 0.031
85 | PLGFFHKQSATV | 0.666 ± 0.023
86 | PLGLPLPCPFLL | 0.683 ± 0.063
87 | PLHPLPPAPFPP | 0.689 ± 0.01
88 | PLIDRSTCSLSG | 0.6366 ± 0.0032
89 | PLIVSPCYSLVP | 0.659 ± 0.014
90 | PLLGPSCLRPPS | 0.791 ± 0.17
91 | PLLIPPPPTYPP | 0.63 ± 0.038
92 | PLLLAPPPPSPP | 0.739 ± 0.036

Row | Sequence | protein stability index
93 | PLLPPALPASPF | 0.6972 ± 0.0019
94 | PLLPPPLSPFPH | 0.659 ± 0.013
95 | PLLPPPPPLSPP | 0.6772 ± 0.0035
96 | PLLPRSILSATG | 0.641 ± 0.043
97 | PLLPRTPPLSAT | 0.671 ± 0.0079
98 | PLLPSLPLPPSP | 0.716 ± 0.011
99 | PLLRGFPAHLAS | 0.699 ± 0.078
100 | PLNHIVHPHRAP | 0.687 ± 0.0052
101 | PLPAPAPSPPSP | 0.695 ± 0.018
102 | PLPHSPPPPPPT | 0.736 ± 0.024
103 | PLPLLPLPPLAP | 0.67 ± 0.098
104 | PLPLPPPFPPLS | 0.59 ± 0.043
105 | PLPLPSPAPPYS | 0.68 ± 0.013
106 | PLPLPTPPAFLS | 0.707 ± 0.08
107 | PLPPASPCLCSY | 0.643 ± 0.049
108 | PLPPHRLPNPRL | 0.784 ± 0.011
109 | PLPPLPPPLSPP | 0.732 ± 0.067
110 | PLPPLPPTRPLP | 0.688 ± 0.026
111 | PLPPPFPGSALL | 0.727 ± 0.01
112 | PLPPPLDLPPRS | 0.735 ± 0.12
113 | PLPPPNPPLPVF | 0.615 ± 0.036
114 | PLPPPPAPPLSP | 0.67 ± 0.018
115 | PLPPPPDSPPLP | 0.694 ± 0.013

Row | Sequence | protein stability index
116 | PLPPPSLPPSPS | 0.699 ± 0.036
117 | PLPPSPLESVDT | 0.637 ± 0.027
118 | PLPPSPTRPPAN | 0.662 ± 0.0099
119 | PLPPVPRTPTPR | 0.662 ± 0.075
120 | PLPPVVPTFSTP | 0.684 ± 0.0077
121 | PLPRLSPFSHPP | 0.701 ± 0.052
122 | PLPSPSSSSSPI | 0.674 ± 0.043
123 | PLRDIRSVRYSS | 0.685 ± 0.053
124 | PLRMFRGGISWR | 0.734 ± 0.037
125 | PLRPPAPRHSPP | 0.723 ± 0.013
126 | PLRRPFSSPFLL | 0.59 ± 0.067
127 | PLRSDSRAESLL | 0.653 ± 0.051
128 | PLRSTYPSLLLP | 0.691 ± 0.011
129 | PLRTCPCAPLPS | 0.689 ± 0.012
130 | PLSDDPRRPLST | 0.688 ± 0.069
131 | PLSLLVHPLPPS | 0.679 ± 0.011
132 | PLSPAPPRPPPP | 0.621 ± 0.023
133 | PLSPRPLPPPPP | 0.713 ± 0.0018
134 | PLSPRSASTFSP | 0.67 ± 0.0013
135 | PLSPSCTLPPRP | 0.674 ± 0.034
136 | PLSTPLSPALLS | 0.602 ± 0.023
137 | PLSYRPPSRFYF | 0.587 ± 0.061
138 | PLTRSRFLLSPL | 0.653 ± 0.034

Row | Sequence | protein stability index
139 | PLTVARTHRGHA | 0.689 ± 0.014
140 | PLVVETNRFGDV | 0.6988 ± 0.004
141 | PMHVILGLSGQP | 0.732 ± 0.059
142 | PMLRSLVVLSSR | 0.669 ± 0.022
143 | PMPRHVPRPTTP | 0.674 ± 0.06
144 | PNPLCQPPTGRP | 0.705 ± 0.14
145 | PNPPYFPSPGRS | 0.74 ± 0.044
146 | PNRKCSGTFAAS | 0.65573 ± 0.00064
147 | PNTNIRTHCQWI | 0.709 ± 0.02
148 | PNVAIMSGGQTV | 0.6912 ± 0.0059
149 | PPACAHPLFWTL | 0.6499 ± 0.00087
150 | PPACPSSRIPVF | 0.615 ± 0.041
151 | PPALRPPPPPPP | 0.6932 ± 0.0019
152 | PPAPHPHLPSSY | 0.685 ± 0.072
153 | PPAPLPLAPSSL | 0.722 ± 0.042
154 | PPAPPLPSSPSP | 0.773 ± 0.024
155 | PPAPPSPPHPPL | 0.7133 ± 0.0036
156 | PPAPRLPPPLPP | 0.629 ± 0.021
157 | PPAPSPPPLPAA | 0.665 ± 0.031
158 | PPASFTPPFLPP | 0.69 ± 0.013
159 | PPASPRSPIVSR | 0.723 ± 0.059
160 | PPATQSPPLPPC | 0.766 ± 0.037
